The source of these data is patent publication US20190144503A1 (REGENTS OF THE UNIVERSITY OF MINNESOTA, published 2019).

Like-named read-outs stand apart in the source and are kept apart here.

Experiment [1] concerns the target T1, recombinant His-tagged human carbonic anhydrase 9 (human, UniProt Q16790 38-414). Description: titration of the purified clone, Relative Binding to CA9 against concentration (x axis printed 'AAZ Concentration (nM)'); assay format not described.
Experiment [2] concerns the target T1, recombinant His-tagged human carbonic …. The experiment is described as above. This is another data set of the same source.
The target is the same in experiment [3]. Description: binding of the purified clone to CA9 (FIG. 14B); method not stated.

B1: Fn-AAZ clone 0.3.10 (fibronectin type III domain of SEQ ID NO: 3 conjugated to acetazolamide) (designed binder)
chain: MASSSDSPRNLEVTNATPNSLTISWDSYLDCAYYYRITYGETGGNSPSQEFTVPGYTNSVTISGLKPGQDYTITVYAVASSNDVSNPISINYRTEIDKPSQGS
modifications: acetazolamide (AAZ) conjugated through a maleimide-PEG linker to the single cysteine; PEG length not stated for this clone
notes: Expressed and purified clone, conjugated with maleimide-PEG-AAZ; also called first Fn-AAZ clone; first Fn-AAZ conjugate
For orientation: Kd means the equilibrium constant for the complex coming apart. For the molecule B1, in experiment [1], the Kd was found to be 60 nM.

B2: Clone 0.3.10 fibronectin type III domain (SEQ ID NO: 3) not conjugated to AAZ (designed binder)
chain: B1 chain
On to B2, for which, in experiment [1], the dissociation constant (Kd) is 600 nM.

B3: Fn-AAZ clone 0.3.9 (fibronectin type III domain of SEQ ID NO: 4 conjugated to acetazolamide) (designed binder)
chain: MASSSDSPRNLEVTNATPNSLTISWDDSYCVIYYRITYGETGGNSPSQEFTVPGYTNSVTISGLKPGQDYTITVYAVTDYSKLDPSNPISINYRTEIDKPSQGS
modifications: acetazolamide (AAZ) conjugated through a maleimide-PEG linker to the single cysteine; PEG length not stated for this clone
notes: Expressed and purified clone, conjugated with maleimide-PEG-AAZ; also called second Fn-AAZ clone; second Fn-AAZ conjugate
For B3, the Kd in experiment [2] was approximately 30 nM. The “fold higher affinity than the Fn not conjugated to AAZ” value in experiment [3] is approximately 6 fold.

B4: Clone 0.3.9 fibronectin type III domain (SEQ ID NO: 4) not conjugated to AAZ (designed binder)
chain: B3 chain
With B4, in experiment [2], the equilibrium dissociation constant (Kd) turned out to be 170 nM.
